Reference: publication PMC2699145 (The Journal of Cell Biology, 2009)

B1: GST fusion protein containing the kinase domain of Src (residues 249-536) (domain or fragment, UniProt P12931 249-536, looked up)
chain: PTSKPQTQGLAKDAWEIPRESLRLEVKLGQGCFGEVWMGTWNGTTRVAIKTLKPGTMSPEAFLQEAQVMKKLRHEKLVQLYAVVSEEPIYIVTEYMSKGSLLDFLKGETGKYLRLPQLVDMAAQIASGMAYVERMNYVHRDLRAANILVGENLVCKVADFGLARLIEDNEYTARQGAKFPIKWTAPEAALYGRFTIKSDVWSFGILLTELTTKGRVPYPGMVNREVLDQVERGYRMPCPPECPESLHDLMCQCWRKEPEERPTFEYLQAFLEDYFTSTEPQYQPGENL
B2: GST-RIL (reversion-induced LIM) (natural protein, human, UniProt P50479 1-330, looked up)
chain: MPHSVTLRGPSPWGFRLVGGRDFSAPLTISRVHAGSKAALAALCPGDLIQAINGESTELMTHLEAQNRIKGCHDHLTLSVSRPEGRSWPSAPDDSKAQAHRIHIDPEIQDGSPTTSRRPSGTGTGPEDGRPSLGSPYGQPPRFPVPHNGSSEATLPAQMSTLHVSPPPSADPARGLPRSRDCRVDLGSEVYRMLREPAEPVAAEPKQSGSFRYLQGMLEAGEGGDWPGPGGPRNLKPTASKLGAPLSGLQGLPECTRCGHGIVGTIVKARDKLYHPECFMCSDCGLNLKQRGYFFLDERLYCESHAKARVKPPEGYDVVAVYPNAKVELV
B3: MBP-tagged RIL (natural protein, human, UniProt P50479 1-330, looked up)
chain: B2 chain

What was measured:
Test in all cases: pull-down
[1] = target: B3
[2] = target: maltose-binding protein (MBP)-tagged Src protein (UniProt P12931 1-536)
[3] = target: pY419 Src (MBP-Src phosphorylated at Y419) (UniProt P12931 1-536, phosphotyrosine at 419)
[4] = target: GST-tagged Src (UniProt P12931 1-536)

B1: binds [1].

B2: binds [2]; binds [3].

B3: binds [4].
